Experimental data taken from the Human Domainome abundance scans (Beltran et al. 2025).
± gives the uncertainty stated by the source.

B1: Poly(rC)-binding protein 1, residues 278 to 350; numbered along this chain, Q15365 (parent)
chain: TQTTHELTIPNNLIGCIIGRQGANINEIRQMSGAQIKIANPVEGSSGRQVTITGSAASISLAQYLINARLSSE

Variants of: B1
Test: abundance fitness (aPCA) (normalised: wild type 0, dead -1); higher = more abundant; growth selection in yeast, the domain comes from the species named
Conditions: Homo sapiens

| Variant | abundance fitness |
| --- | --- |
| T53D | -0.51 ± 0.11 |
| R48P | -0.714 ± 0.11 |
| R48M | -0.217 ± 0.054 |
| R48E | -0.752 ± 0.088 |
| R48G | -0.597 ± 0.043 |
| R48Y | 0.045 ± 0.064 |
| R48N | -0.368 ± 0.1 |
| R48I | -0.205 ± 0.08 |
| R48H | -0.118 ± 0.085 |
| R48Q | -0.257 ± 0.058 |
| R48C | -0.114 ± 0.05 |
| R48K | -0.451 ± 0.066 |
| R48L | -0.328 ± 0.046 |
| R48A | -0.113 ± 0.04 |
| R48V | -0.093 ± 0.034 |
| R48T | -0.158 ± 0.049 |
| R48D | -0.626 ± 0.12 |
| R48W | -0.184 ± 0.044 |
| I59P | -0.764 ± 0.098 |
| I59V | 0.063 ± 0.047 |
| I59C | 0.098 ± 0.068 |
| I59Q | -0.421 ± 0.08 |
| I59Y | -0.93 ± 0.42 |
| I59N | -0.423 ± 0.22 |

| Variant | abundance fitness |
| --- | --- |
| I59E | -0.626 ± 0.081 |
| I59G | -0.66 ± 0.051 |
| I59L | -0.355 ± 0.061 |
| I59K | -0.323 ± 0.092 |
| I59M | -0.477 ± 0.12 |
| I59W | -0.752 ± 0.082 |
| I59T | -0.008 ± 0.044 |
| I59D | -0.567 ± 0.29 |
| I59A | -0.044 ± 0.035 |
| S60E | 0.124 ± 0.042 |
| S60P | -0.635 ± 0.084 |
| S60F | -0.102 ± 0.12 |
| S60D | 0.191 ± 0.061 |
| S60C | -0.098 ± 0.062 |
| S60V | -0.352 ± 0.073 |
| S60T | 0.012 ± 0.046 |
| S60L | -0.354 ± 0.075 |
| S60A | -0.064 ± 0.037 |
| S60I | -0.337 ± 0.22 |
| S60Y | -0.298 ± 0.11 |
| S60H | 0.051 ± 0.084 |
| S60Q | 0.023 ± 0.058 |
| S60K | -0.047 ± 0.063 |
| S60G | -0.05 ± 0.034 |

| Variant | abundance fitness |
| --- | --- |
| Q49V | 0.043 ± 0.034 |
| Q49H | -0.073 ± 0.069 |
| Q49C | 0.006 ± 0.051 |
| Q49A | 0.006 ± 0.043 |
| Q49E | -0.204 ± 0.064 |
| Q49S | 0.008 ± 0.04 |
| Q49M | -0.081 ± 0.045 |
| Q49N | -0.054 ± 0.058 |
| Q49L | 0.03 ± 0.041 |
| Q49I | -0.033 ± 0.063 |
| Q49Y | -0.543 ± 0.12 |
| Q49R | 0.049 ± 0.029 |
| Q49W | -0.613 ± 0.071 |
| Q49F | -0.533 ± 0.16 |
| Q49D | -0.263 ± 0.069 |
| Q49P | -0.298 ± 0.064 |
| Q49K | -0.049 ± 0.063 |
| S55P | -0.102 ± 0.049 |
| S55W | -0.575 ± 0.065 |
| S55V | -0.396 ± 0.056 |
| S55C | -0.252 ± 0.069 |
| S55T | 0.001 ± 0.047 |
| S55H | -0.047 ± 0.085 |
| S55I | -0.882 ± 0.31 |

| Variant | abundance fitness |
| --- | --- |
| S55K | -0.25 ± 0.046 |
| S55A | -0.239 ± 0.042 |
| S55F | -0.551 ± 0.33 |
| S55Q | -0.336 ± 0.051 |
| S55L | -0.786 ± 0.1 |
| S55M | -0.536 ± 0.1 |
| S55G | -0.21 ± 0.034 |
| S55N | -0.017 ± 0.07 |
| S55Y | -0.119 ± 0.17 |
| S55D | -0.13 ± 0.068 |
| S55E | -0.086 ± 0.034 |
| L61M | 0.001 ± 0.065 |
| L61N | -0.278 ± 0.13 |
| L61V | -0.052 ± 0.041 |
| L61T | 0.139 ± 0.044 |
| L61K | 0.266 ± 0.039 |
| L61P | -0.943 ± 0.16 |
| L61D | 0.02 ± 0.07 |
| L61G | -0.504 ± 0.044 |
| L61R | 0.253 ± 0.033 |
| L61W | -0.238 ± 0.054 |
| L61Q | 0.111 ± 0.044 |
| L61S | 0.084 ± 0.039 |
| L61F | -0.074 ± 0.097 |

| Variant | abundance fitness |
| --- | --- |
| L61I | 0.012 ± 0.089 |
| L61E | 0.091 ± 0.033 |
| L61C | 0.022 ± 0.063 |
| T51L | -0.034 ± 0.037 |
| T51K | 0.005 ± 0.052 |
| T51I | -0.107 ± 0.11 |
| T51R | -0.054 ± 0.043 |
| T51N | -0.427 ± 0.23 |
| T51F | -0.071 ± 0.12 |
| T51H | -0.287 ± 0.17 |
| T51Y | -0.07 ± 0.099 |
| T51E | -0.097 ± 0.038 |
| T51S | -0.02 ± 0.042 |
| T51G | -0.574 ± 0.065 |
| T51P | -0.682 ± 0.11 |
| T51Q | -0.088 ± 0.048 |
| T51D | -0.542 ± 0.22 |
| T51C | 0.024 ± 0.085 |
| T51W | -0.063 ± 0.058 |
| T51M | -0.066 ± 0.043 |
| T51V | -0.027 ± 0.033 |
| L65K | -0.422 ± 0.25 |
| L65D | -0.419 ± 0.23 |
| L65T | -0.462 ± 0.14 |

| Variant | abundance fitness |
| --- | --- |
| L65R | -0.689 ± 0.1 |
| L65A | 0.076 ± 0.056 |
| L65G | -0.416 ± 0.056 |
| L65Y | -0.093 ± 0.13 |
| L65V | -0.789 ± 0.18 |
| L65E | -0.191 ± 0.08 |
| L65P | -0.779 ± 0.25 |
| L65M | -0.36 ± 0.18 |
| L65W | -0.166 ± 0.066 |
| L65Q | -0.442 ± 0.14 |
| L65S | -0.582 ± 0.13 |
| I52G | -1.05 ± 0.1 |
| I52F | -0.694 ± 0.26 |
| I52M | -0.225 ± 0.053 |
| I52N | -0.878 ± 0.47 |
| I52V | -0.218 ± 0.037 |
| I52L | -0.039 ± 0.037 |
| I52P | -0.698 ± 0.15 |
| I52E | -0.732 ± 0.097 |
| I52R | -0.996 ± 0.1 |
| I52W | -1.02 ± 0.16 |
| I52C | -1.03 ± 0.27 |
| I52K | -0.631 ± 0.098 |
| I52H | -0.927 ± 0.29 |

| Variant | abundance fitness |
| --- | --- |
| I52D | -0.583 ± 0.25 |
| I52T | -0.739 ± 0.15 |
| I52Y | -1.09 ± 0.39 |
| I52S | -0.574 ± 0.09 |
| A57W | -0.247 ± 0.055 |
| A57D | 0.074 ± 0.071 |
| A57G | -0.126 ± 0.037 |
| A57F | -0.096 ± 0.12 |
| A57M | -0.204 ± 0.069 |
| A57Y | -0.194 ± 0.12 |
| A57I | -0.127 ± 0.14 |
| A57V | -0.243 ± 0.046 |
| A57S | 0.016 ± 0.042 |
| A57C | -0.035 ± 0.077 |
| A57L | -0.327 ± 0.055 |
| A57T | -0.125 ± 0.056 |
| A57Q | 0.068 ± 0.065 |
| A57P | -0.02 ± 0.053 |
| A57N | 0.061 ± 0.086 |
| A57E | 0.088 ± 0.05 |
| A57H | 0.051 ± 0.11 |
| A57R | 0.059 ± 0.035 |
| A57K | 0.116 ± 0.051 |
